Key:
[1] = target: Ab-WbjB (UDP-N-acetylglucosamine 4,6-dehydratase, WbjB) of Acinetobacter baumannii D1279779 (Acinetobacter baumannii strain D1279779); test: SEC; Superdex 200 10/300 GL, Buffer A (50 mM HEPES pH 7.5, 200 mM NaCl, 5% v/v glycerol), 0.5 mL/min; hexamer
[2] = target: Ab-WbjB (UDP-N-acetylglucosamine 4,6-dehydratase, WbjB) of Acinetobacter baumannii D1279779 (Acinetobacter baumannii strain D1279779); test: crystal structure; Se-Met Ab-WbjB, space group P212121, six chains in the asymmetric unit, NADP+ bound to each chain, 2.65 Å
[3] = target: Ab-WbjB (UDP-N-acetylglucosamine 4,6-dehydratase, WbjB) of Acinetobacter baumannii D1279779 (Acinetobacter baumannii strain D1279779); test: SEC; some laboratory samples of Ab-WbjB, presumed by the authors to hold less NADP+; dimer form in solution (example in S1 Fig)

Work on “Ab-WbjB (UDP-N-acetylglucosamine 4,6-dehydratase, WbjB) of Acinetobacter baumannii D1279779 (enzyme)” yielded a stoichiometry N [1] of 6, a stoichiometry N [2] of 6 and a stoichiometry N [3] of 2.
